{"source": "patent US20240342244A1", "about": "“Isthmin Protein Therapeutics for the Treatment of Non-Alcoholic Fatty Liver Disease” (The Board of Trustees of the Leland Stanford Junior …, priority 2021, published 2024)", "key": {"GLUT4": {"test_system": "GLUT4", "assay": "GLUT4 translocation to the plasma membrane in primary adipocytes (immunostaining, fractionation)", "assay_type": "cell-based, mouse", "conditions": "100 nM", "method": "Biochemical analyses. Plasma insulin levels were measured using the Ultra-Sensitive Mouse Insulin ELISA kit (Crystal Chem Inc #90080). Plasma triglycerides were measured with Infinity triglyceride measurement kit (Thermo #TR22421) and tissue triglycerides were measured with a Triglyceride Colorimetric Assay Kit (Cayman #10010303). Lipolysis was measured in day 5 differentiated adipocytes after 4 hours of protein treatment using a glycerol release assay according to the protocol provided by the manufacturer (Abcam #ab133130). Plasma membrane protein extractions were performed according to the manufacturer's protocol (Abcam #ab65400).\nImmunocytochemistry. Primary mouse preadipocytes were seeded onto collagen-coated 22 mm×22 mm coverslips and differentiated using the method above. On day 8, differentiated adipocytes were washed with PBS and starved in 0.5% BSA in KRH buffer (50 mM HEPES, 136 mM NaCl, 1.25 mM MgSO4, 1.25 mM CaCl2, 4.7 mM KCl, pH 7.4) for 3.5 h. Cells were treated with insulin or ISM1 for 30 min, followed by three washes with cold PBS. Cells were fixed with 4% PFA in PBS for 15 min at room temperature. After blocking with 2% BSA, 5% goat serum, 0.2% Triton-X in PBS for 1 hr, cells were incubated with diluted primary antibody at 4° C. overnight. The next day, cells were washed and incubated with secondary antibody on ice for 1 hr. Cells were imaged using confocal microscope (Leica TCS SP8). Hoechst (#33342, thermo fisher) was used as counterstain."}, "pAKT^S473 [1]": {"test_system": "pAKT^S473", "assay": "pAKT S473 signaling in 3T3-F442A cells (phosphokinase array, western blot)", "assay_type": "cell-based", "method": "(§1) Western blots and molecular analyses. For western blotting, homogenized tissues or whole-cell lysates, samples were lysed in RIPA buffer containing protease inhibitor cocktail (Roche) and phosphatase inhibitor cocktail (Roche). Cell lysates were centrifuged at 14,000×g for 15 min and supernatants were prepared in 4×LDS Sample Buffer (Invitrogen) and separated by SDS-PAGE and transferred to Immobilon 0.45 μm membranes (Millipore). For Western blotting of plasma samples, 1 μl of plasma was prepared in 2× sample buffer (Invitrogen) with reducing agent, boiled, and analyzed using Western blot against indicated antibody. Protein kinase array (R&D systems ARY003B) was performed according to the manufacturers' description. All antibodies used in this paper are described in STAR methods."}, "pAKT^S473 [2]": {"test_system": "pAKT^S473", "assay": "pAKT S473 western blot in human SGBS adipocytes and human primary skeletal muscle cells", "assay_type": "cell-based", "method": "as §1"}, "[3]": {"assay": "Pharmacokinetic measurement of ISM1 blood levels (anti-his ELISA, western blot)", "assay_type": "in vivo, mouse", "conditions": "mice", "method": "Pharmacokinetic measurements of ISM1 blood levels following ISM1 administration. An anti-his tag ELISA was performed to measure ISM1-his concentrations in blood. Recombinant ISM1 protein was administered at 10 mg/kg I.V. in a total volume of 100 ul. Blood was collected and centrifuged at 6000×g for 10 minutes at room temperature to collect serum. Blood levels were measured using the HisProbe-HRP Conjugate according to the manufacturer's instructions (Thermo #15165). Briefly, samples were prepared by diluting serum in coating buffer at 1:100 ratio and added to wells for overnight incubation at 4° C. Nonspecific binding was blocked by adding blocking buffer and incubating for 30 min at 37° C. The plate was washed three times with wash buffer. HisProbe-HRP (Thermo, #15165) working solution was added to each well. After 15 min incubation at room temperature, the plate was washed four times with wash buffer, followed by adding substrate (Thermo, #34022). After 10 min, 1N sulfuric acid was added to stop the reaction. Absorbance was measured at 450 nm."}, "NAFLD mice": {"test_system": "NAFLD mice", "assay": "Therapeutic administration for 14 days in mice with established NAFLD", "assay_type": "in vivo, mouse", "method": "Therapeutic ISM1 recombinant protein administration in vivo. All pharmacologic studies using recombinant ISM1 protein were performed in mice with established diet-induced obesity or non-alcoholic fatty liver disease (NAFLD). For all experiments, male C57BL/6J mice purchased from Jax were fed either a high-fat diet (#D12492, Research Diets) or a NAFLD diet (#D09100310, Research Diets) prior to ISM1 protein injections. In all experiments, mice were mock injected with saline for three days prior to protein or drug injections to prevent stress-induced weight loss. Mice were I.P. injected with vehicle (saline) or indicated doses of ISM1 protein diluted in saline. For the 14-day experiments in NAFLD mice, 7-weeks old mice were fed with NAFLD diet for 3 weeks and then mock injected with saline for 3 days prior to protein injections. The induction of lipid accumulation with NAFLD diet was verified by the significant increase in hepatic lipid levels compared with mice on chow diet at the same time point. NAFLD mice were then daily I.P. injected with either vehicle (saline containing 5% DMSO and 10% Kolliphor) or indicated doses of ISM1 protein (500 μg/kg or 5 mg/kg) or with FXR agonist (30 mg/kg, GW4064, Sigma-Aldrich, #G5172) diluted in vehicle (saline containing 5% DMSO and 10% Kolliphor). For the 21-day experiments in HFD mice, mice were mock injected with saline for three days prior to protein injections. Mice were then daily I.P. injected with either vehicle (saline) or 5 mg/kg of ISM1 protein diluted in saline. Metformin (100 mg/kg, Sigma, #317240) was diluted in saline and daily administered by oral gavage. All groups received control injections by I.P. and oral gavage. At the end of the experiments, mice and tissue weights were recorded. Tissues and plasma were collected and frozen for further analyses.\nImmunohistochemistry. For H&E staining, livers were formalin-fixed, paraffin-embedded, and sectioned at 6 μm. For hematoxylin and eosin (H&E) staining, sections were deparaffinized and […] with xylenes and ethanol. Briefly, slides were stained with hematoxylin, washed with water and 95% ethanol, and stained with eosin for 30 min. Sections were then incubated with ethanol and xylene, and mounted with mounting medium. For Oil red O stainings, frozen liver tissue slides were fixed with 3% formalin in PBS, washed twice with water, incubated with 60% isopropanol for 5 min and then incubated with Oil Red O solution (3:2 ratio of Oil Red O:H2O) for 20 min. […] Digital images were captured with a Nikon Digital Sight DS-Fi1 color camera and NIS-Elements acquisition software."}, "[4]": {"conditions": "insulin 1 nM up to 100 nM with 25 nM or 50 nM ISM1"}, "[5]": {"conditions": "0.5 mg/kg daily for 14 days, vs vehicle-treated NAFLD mice"}, "[6]": {"conditions": "5 mg/kg ISM1 vs 30 mg/kg GW4064, 14 days"}, "[7]": {"conditions": "5 mg/kg daily for 14 days, vs vehicle-treated NAFLD mice"}}, "data": [{"molecule": "ISM1: recombinant mouse ISM1 protein with a C-terminal myc-his tag generated in mammalian HEK 293 Expi cells (protein, UniProt A2ATD1 30-454, looked up, C-terminal myc-His tag, recombinant mouse ISM1 protein with a C-terminal myc-his tag generated in mammalian HEK 293 Expi cells) Isthmin-1: SDRQDAAAGNNNLNLESDSTSETSFPLSKEAPEEHQVVHQPFPRQRFPPETGHPSLQRDGPRSFLLDLPNFPDLSKADINGQNPNIQVTIEVVDGPDSEAEKDQHPENKPSWSLPAPDWRAWWQRSLSLARTNSGDQDDKYDSTSDDSNFLSVPRGWDRPAPGHRTFETKEQPEYDSTDGEGDWSLWSVCSVTCGNGNQKRTRSCGYACIATESRTCDRPNCPGIEDTFRTAATEVSLLAGSEEFNATKLFEVDMDSCERWMSCKSEFLKKYMHKVINDLPSCPCSYPTEVAYSTADIFDRIKRKDFRWKDASGPKEKLEIYKPTARYCIRSMLSLESTTLAAQHCCYGDNMQLITRGKGAGTPNLISTEFSAELHYKVDVLPWIICKGDWSRYNEARPPNNGQKCTESPSDEDYIKQFQEAREY", "values": [{"measurement": "GLUT4 in plasma membrane fraction (biochemical fractionation)", "setting": "GLUT4; 4 h", "result": "translocation of GLUT4 to the plasma membrane"}, {"measurement": "GLUT4 at cell surface (immunostaining, confocal microscopy)", "setting": "GLUT4; compared with control cells", "result": "higher levels of GLUT4 at cell surface"}, {"measurement": "pAKT^S473 bioactivity compared with commercially available ISM1 protein (R&D systems)", "setting": "pAKT^S473 [1]; 100 nM, 5 min", "result": "comparable bioactivities"}, {"measurement": "top hit of phosphokinase array (43 proteins)", "setting": "pAKT^S473 [1]; 100 nM, 5 min", "result": "phosphorylated protein kinase B (PKB)/AKT at S473"}, {"measurement": "dose at which dose-dependent increase in pAKT^S473 phosphorylation starts", "setting": "pAKT^S473 [1]; increasing doses, 5 min", "result": 50, "unit": "nM"}, {"measurement": "AKT activity of ISM1 combined with insulin", "setting": "pAKT^S473 [1]; [4]", "result": "additional effect"}, {"measurement": "potentiation of insulin on AKT activity", "setting": "pAKT^S473 [1]; [4]", "result": "no evidence of potentiation"}, {"measurement": "pAKT^S473 induction", "setting": "pAKT^S473 [2]; human SGBS adipocytes", "result": "induced pAKT^S473"}, {"measurement": "pAKT^S473 induction", "setting": "pAKT^S473 [2]; human primary skeletal muscle cells (HSMC), 100 nM, 5 min", "result": "induced pAKT^S473"}, {"measurement": "half-life in the blood", "setting": "[3]; 10 mg/kg I.V., serum, anti-his ELISA", "result": "approximately 70 minutes"}, {"measurement": "protein integrity in plasma (western blot)", "setting": "[3]; after I.V. administration", "result": "no observed protein degradation or cleavage"}, {"measurement": "fed blood glucose reduced", "setting": "NAFLD mice; [5]", "result": "not"}, {"measurement": "liver weights reduced", "setting": "NAFLD mice; [5]", "result": "not"}, {"measurement": "effect on liver weights, blood glucose and histological signs of steatosis compared with benchmark", "setting": "NAFLD mice; [6]", "result": "as potent as the FXR agonist GW4064 treatment"}, {"measurement": "reversal of hepatic steatosis compared with benchmark", "setting": "NAFLD mice; [6]", "result": "performs equal to the FXR agonist GW4064"}, {"measurement": "fed blood glucose", "setting": "NAFLD mice; [7]", "result": "reduced"}, {"measurement": "liver weights", "setting": "NAFLD mice; [7]", "result": "reduced liver weights"}, {"measurement": "hepatic Fatty Acid Synthase (FAS) protein levels", "setting": "NAFLD mice; 5 mg/kg, 14 days", "result": "reduced hepatic Fatty Acid Synthase (FAS) protein levels"}, {"measurement": "liver Oil red O staining", "setting": "NAFLD mice; 5 mg/kg, 14 days", "result": "reduced Oil red O staining"}, {"measurement": "gross liver morphology", "setting": "NAFLD mice; 5 mg/kg, 14 days, vs vehicle treated NAFLD mice", "result": "obvious gross morphological changes in liver size and color"}]}]}
